Experimental data: doi:10.1101/2022.06.24.497440

Columns and labels:
[1] = target: CaV1.2 IQ motif peptide Y1649A (UniProt P15381); assay: ITC
[2] = target: CaV1.2 IQ motif peptide Y1657D (UniProt P15381); assay: ITC
[3] = target: CaV1.2 IQ motif peptide I1654A (UniProt P15381); assay: ITC
[4] = target: CaV1.2 IQ motif peptide F1658A (UniProt P15381); assay: ITC
[5] = target: CaV1.2 IQ motif peptide F1658D (UniProt P15381); assay: ITC
[6] = target: fluorescently labeled CaV1.2 IQ peptide K1662E (UniProt P15381); assay: fluorescence polarisation
[7] = target: fluorescently labeled CaV1.2 IQ peptide, wildtype (UniProt P15381); assay: fluorescence polarisation
[8] = target: fluorescently labeled CaV1.2 IQ peptide Y1657D (UniProt P15381); assay: fluorescence polarisation

Substance	Kd [1] [nM]	Kd [2] [nM]	Kd [3] [nM]	Kd [4] [nM]	Kd [5] [nM]	Kd [6] [nM]	Kd [7] [nM]	Kd [8] [nM]
calmodulin mutant D21A/D23A/D25A/E32Q/D57A/D59A/N61A/E68Q (CaM12’), Ca2+ bound at EF3 and EF4 (from UniProt P0DP23 1-149) (natural protein)	26	8000	60	32	4000	< 100	< 100	–
calmodulin, wild type, Ca2+-free (apoCaM) (from UniProt P0DP23 1-149) (natural protein)	–	–	–	–	–	–	–	60000
